B1: Pfs230 D1D2 (aa 587–889) (domain or fragment, Plasmodium falciparum, UniProt P68874 587-889, looked up)
chain: TNKEYVCDFTDQLKPTESGPKVKKCEVKVNEPLIKVKIICPLKGSVEKLYDNIEYVPKKSPYVVLTKEETKLKEKLLSKLIYGLLISPTVNEKENNFKEGVIEFTLPPVVHKATVFYFICDNSKTEDDNKKGNRGIVEVYVEPYGNKINGCAFLDEDEEEEKYGNQIEEDEHNEKIKMKTFFTQNIYKKNNIYPCYMKLYSGDIGGILFPKNIKSTTCFEEMIPYNKEIKWNKENKSLGNLVNNSVVYNKEMNAKYFNVQYVHIPTSYKDTLNLFCSIILKEEESNLISTSYLVYVSINEELN
notes: used untagged; also called first two 6-cys domains of Pfs230; source: Sf21 insect cells (baculovirus), secreted, purified (Ni-NTA, TEV cleavage, SEC); not shown: His8, N-terminal, cleaved
B12: Pfs230 Pro-D1D2 (aa 532–889) (domain or fragment, Plasmodium falciparum, UniProt P68874 532-889, looked up)
chain: DGENVIKIIRSVLQSGALPSVGVDELDKIDLSYETTESGDTAVSEDSYDKYASNNTNKEYVCDFTDQLKPTESGPKVKKCEVKVNEPLIKVKIICPLKGSVEKLYDNIEYVPKKSPYVVLTKEETKLKEKLLSKLIYGLLISPTVNEKENNFKEGVIEFTLPPVVHKATVFYFICDNSKTEDDNKKGNRGIVEVYVEPYGNKINGCAFLDEDEEEEKYGNQIEEDEHNEKIKMKTFFTQNIYKKNNIYPCYMKLYSGDIGGILFPKNIKSTTCFEEMIPYNKEIKWNKENKSLGNLVNNSVVYNKEMNAKYFNVQYVHIPTSYKDTLNLFCSIILKEEESNLISTSYLVYVSINEELN
notes: Pfs230 of Plasmodium falciparum (PF3D7_0209000), amino acids 532-889: a part of the prodomain and 6-cys domains D1 and D2; used untagged; source: Sf21 insect cells (baculovirus), secreted, purified (Ni-NTA, TEV cleavage, SEC); not shown: His8, N-terminal, cleaved

Key:
Settings in all cases: both partners purified
F10-Fc = target: T1, F10-Fc (alpaca); assay: BLI; Octet RED96e; nanobody-Fc or LMIV230-01 (5 µg/ml) on anti-hIgG Fc capture sensor tips; untagged Pfs230 D1D2 or Pfs230 Pro-D1D2 3 to 100 nM or 94–3000 nM; PBS pH 7.4, 0.1% BSA, 0.05% TWEEN-20, 25°C; global 1 : 1 fit
T1 construct: as the VHH of m14 (nanobody F10); also called F10 nanobody-Fc fusion; source: HEK293, transient transfection, purified from supernatant (HiTrap PrismA, SEC)

F5-Fc = target: T2, F5-Fc (alpaca); assay: as above
T2 construct: as the VHH of m13 (nanobody F5); also called F5 nanobody-Fc fusion; source: HEK293, transient transfection, purified from supernatant (HiTrap PrismA, SEC)

Pfs230 D1 (aa 587–731) = target: T3, Pfs230 D1 (aa 587–731) (Plasmodium falciparum 3D7, UniProt P68874); assay: BLI; Octet RED96e; monomeric nanobodies (5 µg/ml) on Ni-NTA sensor tips; untagged Pfs230 D1D2 6 to 200 nM or untagged Pfs230 D1 0.8 to 100 nM; PBS pH 7.4, 0.1% BSA, 0.05% TWEEN-20, 25°C; global 1 : 1 fit
T3 construct: used untagged; also called first 6-cys domain of Pfs230; source: Sf21 insect cells (baculovirus), secreted, purified (Ni-NTA, TEV cleavage, SEC); not shown: His8, N-terminal, cleaved

Pfs230 D1D2 (aa 587–889) [1] = target: B1; assay: far-Western, overlay or dot blot; western blot: 250 ng untagged Pfs230 D1D2 separated on a 4–12% Bis-Tris gel in non-reducing conditions, on PVDF, probed with 0.5 µg/ml nanobody overnight at 4°C
Pfs230 D1D2 (aa 587–889) [2] = target: B1; assay: far-Western, overlay or dot blot; western blot: 250 ng untagged Pfs230 D1D2 separated on a 4–12% Bis-Tris gel in reducing conditions, on PVDF, probed with 0.5 µg/ml nanobody overnight at 4°C
[3] = target: B12; assay: SEC; size shift assay: Pfs230 Pro-D1D2 or Pfs230 D1D2 incubated with nanobodies or LMIV230-01 at different molar ratios for 1 h on ice; SD200 3.2/300 column, 20 mM HEPES pH 7.5, 150 mM NaCl
Pfs230 D1D2 (aa 587–889) [4] = target: B1; assay: BLI; Octet RED96e; monomeric nanobodies (5 µg/ml) on Ni-NTA sensor tips; untagged Pfs230 D1D2 6 to 200 nM or untagged Pfs230 D1 0.8 to 100 nM; PBS pH 7.4, 0.1% BSA, 0.05% TWEEN-20, 25°C; global 1 : 1 fit

Work on B1 yielded a Kd (F10-Fc) of 0.13 nM and a Kd (F5-Fc) of 0.57 nM.

B2: nanobody G2 (VHH)
VHH: QVQLQESGGGLVQAGGSLRLSCAASGRTFSNYFMGWFRQAPGKEREFVAAVSWSGGSTYYADSVKGRLTISRDNAKNTVYLQMNSLKPEDTAVYYCAAGERYFPMEPRRGYDYWGQGTQVTVSS
notes: From a phage display library (pMES4) of an alpaca immunized with Pfs230 D1D2; source: E. coli WK6, periplasmic extract, purified (HisTrap)
B2: binds (Pfs230 D1 (aa 587–731)); binds (Pfs230 D1D2 (aa 587–889) [1]).

B3: nanobody D6 (VHH)
VHH: QVQLQESGGGLVQAGDSLRLSCAASGRTFSSYFMGWFRQAPGKEREFVAAISWSGGSTYYADSVKGRFTISRDNVKNTVYLQMNSLEPEDAAVYYCAGGGSYYPMSPRNGMDYWGKGTQVTVSS
notes: as for B2
B3: binds (Pfs230 D1 (aa 587–731)); binds (Pfs230 D1D2 (aa 587–889) [2]).

B4: nanobody F10 (VHH)
VHH: QVQLQESGGGLVQAGGSLRLSCAASGRTFSDYFMGWFRQAPGKEREFVAAVSWSGGSTYYADSVKGRFTISRDNAKNTVFLQMNSLKPEDTAVYYCAGGGSYYPMSPYDGMDYWGKGTQVTVSS
notes: From a phage display library (pMES4) of an alpaca immunized with Pfs230 D1D2; also called anti-Pfs230 F10; source: E. coli WK6, periplasmic extract, purified (HisTrap)
With B4 the “stoichiometry N” value [3] was 1.

B5: nanobody A10 (VHH)
VHH: QVQLQESGGGLVQAGSSLRLSCAASGGTFSNYAMGWFRQAPGKEREFVAAIGWSGGTYYTDSVEGRFTISRDNAKNTVYLQMNSLKPEDTAVYYCAAKRSGSSWSERGYDYWGQGTQVTVSS
notes: as for B2
B5: binds (Pfs230 D1 (aa 587–731)); binds (Pfs230 D1D2 (aa 587–889) [1]).

B6: nanobody D11 (VHH)
VHH: QVQLQESGGGLVQAGSSLRLSCAASGRTFSSYAMGWFRQAPGKEREFVAAIGWSGGTYYTDSVEGRFTISRDNAENTVYLQMNSLKPEDTAVYYCAAKASGSSWSERGYDYWGQGTQVTVSS
notes: as for B2
B6: binds (Pfs230 D1D2 (aa 587–889) [4]); binds (Pfs230 D1 (aa 587–731)).

B7: nanobody B4 (VHH)
VHH: QVQLQESGGGLVQPGGSLRLSCAASGFTLDYYGIGWFRQAPGKEREGVSCISSSDGSTYYADSVKGRFTISRDNAKNTVYLQMNSLKPEDTAVYYCAADLTGIGCTTAQAMGVIGDFGDFGSWGQGTQVTVSS
notes: as for B2
B7: binds (Pfs230 D1D2 (aa 587–889) [4]); binds (Pfs230 D1 (aa 587–731)).

B8: nanobody E11 (VHH)
VHH: QVQLQESGGGLVQPGGSLRLSCAASGFTSDYYGIGWFRQAPGKEREGVACISSSDGSTYYADSVKGRSTISRDNAKNTVYLQMNSLKPEDTAVYYCAADLSGIGCTTAQAMDVIGDFGDFGSWGQGTQVTVSS
notes: as for B2
B8: binds (Pfs230 D1D2 (aa 587–889) [4]); binds (Pfs230 D1 (aa 587–731)).

B9: nanobody G5 (VHH)
VHH: QVQLQESGGGLVQAGGSLRLSCAASGRTFNDYAMYWFRQAPGKEREFVADITWSGSSTYYADSVKGRFTISRDNAKNTVFLQMNSLKPEDTALYYCAADSRYYGIGIGTPRYWGQGTQVTVSS
notes: as for B2
B9: binds (Pfs230 D1 (aa 587–731)); binds (Pfs230 D1D2 (aa 587–889) [1]).

B10: nanobody D1 (VHH)
VHH: QVQLQESGGGLVQAGDSLRLSCTASGRTFSNHAMGWFRQAPGKEREIVAVIFGTGRNSWYVDSVKGRFTISRDNAKNTVALQMNRLKPEDTAVYYCASGRTWYSGSSMAEYDYWGQGTQVTVSS
notes: Not to be confused with the D1 domain of Pfs230; From a phage display library (pMES4) of an alpaca immunized with Pfs230 D1D2; also called D1 (nanobody); source: E. coli WK6, periplasmic extract, purified (HisTrap)
B10: binds (Pfs230 D1 (aa 587–731)).

B11: nanobody A11 (VHH)
VHH: QVQLQESGGGLVQPGESLRLSCAASGRTSSSYAMGWFRQAPGKEREFVASISWSGGSTYYADSVKGRFTLSRDNAKNTVYLQMNSLKPEDTAVYYCAADGIFYSDYPLSVDDFHSWGQGTQVTVSS
notes: as for B2
B11: binds (Pfs230 D1 (aa 587–731)); binds (Pfs230 D1D2 (aa 587–889) [2]).

For B12, the Kd (F5-Fc) was 118 nM.

B13: nanobody E1 (VHH)
VHH: QVQLQESGGGLVQPGGSLRLSCAASGRTFSSYFMGWFRQAPGKGRVFVASISWSGGSTYYADSVKGRFTISRDNAENTVYLQMNSLKPEDTAVYYCAAGTRATPLDWASGMDYWGKGTQVTVSS
notes: as for B2
B13: binds (Pfs230 D1D2 (aa 587–889) [4]); binds (Pfs230 D1 (aa 587–731)).

B14: nanobody F5 (VHH)
VHH: QVQLQESGGGLVQPGGSLRLSCAASGFTLDRYAIGWFRQAPGKEREGVSCISSSDGSTYYADSVKGRFTISRDNAKNTVYLQMNSLKPEDTAVYYCARDHGPCTVLADILYDYGMDYWGKGTQVTVSS
notes: From a phage display library (pMES4) of an alpaca immunized with Pfs230 D1D2; also called anti-Pfs230 F5; source: E. coli WK6, periplasmic extract, purified (HisTrap)
In the case of B14, the “stoichiometry N” value [3] is reported as 1.
